This note sets out measurements from US20250270308A1 (UCB, published 2025).

The target of the experiment is T1, human TNFα in complex with compound (1) (human, UniProt P01375 77-233).
T1 construct: also called human TNFα + compound (1); compound-distorted human TNFα
As to the kind of experiment: size exclusion HPLC. For orientation: SEC sorts molecules by how far they enter the pores of the column.

T1 sequence (P01375 77-233 limits assumed, one chain of several): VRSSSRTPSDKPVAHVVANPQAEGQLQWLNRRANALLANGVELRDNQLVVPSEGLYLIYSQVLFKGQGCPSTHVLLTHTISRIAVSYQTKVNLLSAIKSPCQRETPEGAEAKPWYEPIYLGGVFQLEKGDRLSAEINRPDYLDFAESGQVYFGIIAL

B1: CA185_01979 mouse Fab (no hinge) (Fab, V domains shown)
VH: EVHLVESGPGLVKPSQSLSLTCSVTGYSITNSYWDWIRKFPGNKMEWMGYINYSGSTGYNPSLKSRISISRDTSNNQFFLQLNSITTEDTATYYCARGTYGYNAYHFDYWGRGVMVTVSS
VL: DIQMTQSPASLSASLEEIVTITCQASQDIGNWLSWYQQKPGKSPHLLIYGTTSLADGVPSRFSGSRSGTQYSLKISGLQVADIGIYVCLQAYSTPFTFGSGTKLEIKR
notes: also called CA185_01979 mFab; CA185-01979 Fab fragment
On to B1, for which the stoichiometry was 1 Fab per TNFα trimer.
